Experimental data reported in US20170253670A1 (Hoffmann-La Roche, published 2017).
Values joined by “and” are separate entries in the source; they are usually repeats but may differ in a detail not shown here. Equal values may be shown once.

T1: MUC1 SEA-avi-His, biotinylated (human, biotin on avi tag)
T1 construct: E. coli derived; also called MUC1 antigen; SEA domain of human MUC1
T1 chain: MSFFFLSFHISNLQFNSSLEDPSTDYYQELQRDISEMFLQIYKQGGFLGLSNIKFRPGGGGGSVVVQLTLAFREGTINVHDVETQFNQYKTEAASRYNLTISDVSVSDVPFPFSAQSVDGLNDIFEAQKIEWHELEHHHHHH

T2: recombinant human BCMA Fc(kih) (human, UniProt Q02223 4-53, biotin on avi-tag where coupled to SA chip ; biotin on the avi-tag of the Fc-knob chain where coupled to the SA chip (tag not in the letters))
T2 construct: also called huBCMA Fc(kih); huBCMA; not shown: human IgG1 hinge-Fc(knob)-avi fused to the ECD, and the unfused Fc(hole) chain
T2 chain: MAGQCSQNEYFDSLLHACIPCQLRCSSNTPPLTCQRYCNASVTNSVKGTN

T3: human BCMA on myeloma cells (H929, U266) (human, UniProt Q02223 1-184)
T3 sequence (looked up): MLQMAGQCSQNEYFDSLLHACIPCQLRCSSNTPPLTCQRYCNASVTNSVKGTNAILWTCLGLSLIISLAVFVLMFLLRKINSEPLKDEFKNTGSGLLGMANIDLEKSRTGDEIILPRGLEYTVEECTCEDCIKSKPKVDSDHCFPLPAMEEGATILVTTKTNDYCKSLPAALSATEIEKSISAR

T4: recombinant murine BCMA Fc(kih) (murine, UniProt O88472 2-49, biotinylated at the avi-tag of the Fc knob chain (not in the letters))
T4 construct: also called muBCMA Fc(kih); not shown: human IgG1 hinge-Fc(knob)-avi and the unfused Fc(hole) chain
T4 chain: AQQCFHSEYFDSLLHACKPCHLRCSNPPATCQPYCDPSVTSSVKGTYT


How the values were obtained:
[1] = target: T5, human FolR1 on cells (HeLa, SKOV3, HT-29, transfected HEK) (human, UniProt P15328 25-234); assay: flow cytometry on HeLa cells, fluorescently labeled anti-human secondary antibody
T5 construct: whole, on cells
T5 sequence (P15328 25-234): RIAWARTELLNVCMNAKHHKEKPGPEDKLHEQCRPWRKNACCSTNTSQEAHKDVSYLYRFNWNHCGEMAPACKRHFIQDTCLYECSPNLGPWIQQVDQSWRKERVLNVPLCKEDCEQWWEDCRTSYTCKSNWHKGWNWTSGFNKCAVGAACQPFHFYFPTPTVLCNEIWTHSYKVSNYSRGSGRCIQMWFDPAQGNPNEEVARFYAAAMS
Method: FIGS. 2A-C depict graphs summarizing Binding of FoLR1 IgG binders to HeLa cells. Binding of newly generated FolR1 binders to FolR1 expressed on HeLa cells were determined by flow cytometry. Bound antibodies were detected with a fluorescently labeled anti-human secondary antibody.
The identified binders were converted into a human IgG1 format and binding to FolR1 high expressing HeLa cells was addressed. […] In a next step the selected clones were tested for specificity to human FolR1 by excluding binding to the closely related human FolR2. HEK cells were transiently transfected with either human FolR1 or human FolR2 to address specificity. […] In parallel cross-reactivity of the FolR1 clones to cyno FolR1 was addressed by performing binding studies to HEK cells transiently transfected with cyno FolR1. […] These FolR1 TCBs were then used to compare induction of internalization after binding to FolR1 on HeLa cells.

[2] = target: T1, MUC1 SEA-avi-His, biotinylated; assay: SPR (ProteOn XPR36), biotinylated MUC1 on NLC chip, Fab as analyte, 1:1 Langmuir fit
Method: Immobilization of recombinant antigens (ligand): Antigens were diluted with PBST (10 mM phosphate, 150 mM sodium chloride pH 7.4, 0.005% Tween 20) to 10 μg/ml, then injected at 30 μl/minute at varying contact times, to achieve immobilization levels of about 200 response units (RU) in vertical orientation. […] Buffer (PBST) was injected along the sixth channel to provide an “in-line” blank for referencing. Association rate constants (kₒₙ) and dissociation rate constants (koff) were calculated using a simple one-to-one Langmuir binding model in ProteOn Manager v3.1 software by simultaneously fitting the association and dissociation sensorgrams. The equilibrium dissociation constant (KD) was calculated as the ratio koff/kₒₙ. Regeneration was performed in horizontal orientation using 10 mM Glycine, pH 1.5 at a flow rate of 100 ul/min for a contact time of 30 s.

[3] = target: T2, recombinant human BCMA Fc(kih); assay: SPR Biacore, 1:1 Langmuir fit, as in Example 41
Method: The affinity of the interaction between anti-BCMA antibodies or BCMA-TCB CLC antibodies and recombinant human BCMA Fc(kih) was also determined. Anti-human Fab antibody (GE Healthcare) was directly coupled on a CM5 chip at pH 5.0 using the standard amine coupling kit (Biacore, Freiburg/Germany). The immobilization level was about 6500 RU. […] The dissociation was monitored for 120 or 400 seconds. Bulk refractive index differences were corrected for by subtracting the response obtained on reference flow cell. […] Kinetic constants were derived using the Biacore T200 Evaluation Software (v 1.0, Biacore AB, Uppsala/Sweden), to fit rate equations for 1:1 Langmuir binding by numerical integration (Table 41).
The anti-BCMA antibody comprising two heavy chains of 83A10 and two common light chains were produced using the general techniques for generation of bivalent IgG antibodies as described in the Material and general methods section.

[4] = target: T3, human BCMA on myeloma cells (H929, U266); assay: cell-based or functional assay
[5] = target: T2, recombinant human BCMA Fc(kih); assay: SPR Biacore, binder captured via anti-Fab, BCMA-Fc analyte
[6] = target: T4, recombinant murine BCMA Fc(kih); assay: as above

Binder | EC50 (read off the curve) [1] | Kd [2] | koff [2] | kon [2] | further results
Mov19 IgG (antibody, V domains shown) VH: QVQLQQSGAELVKPGASVKISCKASGYSFTGYFMNWVKQSHGKSLEWIGRIHPYDGDTFYNQNFKDKATLTVDKSSNTAHMELLSLTSEDFAVYYCTRYDGSRAMDYWGQGTTVTVSS VL: DIELTQSPASLAVSLGQRAIISCKASQSVSFAGTSLMHWYHQKPGQQPKLLIYRASNLEAGVPTRFSGSGSKTDFTLNIHPVEEEDAATYYCQQSREYPYTFGGGTKLEIK | ~1 µg/mL | – | – | – | –
19E5 IgG (antibody, V domains shown, human IgG1) VH: QVQLVQSGAEVKKPGASVKVSCKASGYTFTSYYMHWVRQAPGQGLEWMGIINPSGGSTSYAQKFQGRVTMTRDTSTSTVYMELSSLRSEDTAVYYCARGEWRRYTSFDYWGQGTLVTVSS VL: QAVVTQEPSLTVSPGGTVTLTCGSSTGAVTTSNYANWVQEKPGQAFRGLIGGTNKRAPGTPARFSGSLLGGKAALTLSGAQPEDEAEYYCALWYSNLWVFGGGTKLTVL | ~2 µg/mL | – | – | – | –
19A4 IgG (antibody, V domains shown, human IgG1) VH: QVQLVQSGAEVKKPGASVKVSCKASGYTFTSYYMHWVRQAPGQGLEWMGIINPSGGSTSYAQKFQGRVTMTRDTSTSTVYMELSSLRSEDTAVYYCARGGWIRWEHFDYWGQGTLVTVSS VL: QAVVTQEPSLTVSPGGTVTLTCGSSTGAVTTSNYANWVQEKPGQAFRGLIGGTNKRAPGTPARFSGSLLGGKAALTLSGAQPEDEAEYYCALWYSNLWVFGGGTKLTVL | ~3 µg/mL | – | – | – | –
58D6 Fab (Fab, V domains shown, bacterial Fab) VH: not shown VL: QAVVTQEPSLTVSPGGTVTLTCGSSTGAVTTSNYANWVQEKPGQAFRGLIGGTNKRAPGTPARFSGSLLGGKAALTLSGAQPEDEAEYYCALWYSNLWVFGGGTKLTVL | – | 23.5 nM | 0.000798 s⁻¹ | 34000 M⁻¹ s⁻¹ | –
106D2 Fab (Fab, V domains shown, bacterial Fab) VH: EVQLLESGGGLVQPGGSLRLSCAASGFTFRVYAMSWVRQAPGKGLEWVSGISETGSYTYYADSVKGRFTISRDNSKNTLYLQMNSLRAEDTAVYYCARYPYGFDYWGQGTLVTVSS VL: QAVVTQEPSLTVSPGGTVTLTCGSSTGAVTTSNYANWVQEKPGQAFRGLIGGTNKRAPGTPARFSGSLLGGKAALTLSGAQPEDEAEYYCALWYSNLWVFGGGTKLTVL | – | 30 nM | 0.000295 s⁻¹ | 9800 M⁻¹ s⁻¹ | –
110A5 Fab (Fab, V domains shown, bacterial Fab) VH: not shown VL: QAVVTQEPSLTVSPGGTVTLTCGSSTGAVTTSNYANWVQEKPGQAFRGLIGGTNKRAPGTPARFSGSLLGGKAALTLSGAQPEDEAEYYCALWYSNLWVFGGGTKLTVL | – | 134 nM | 0.00164 s⁻¹ | 12200 M⁻¹ s⁻¹ | –
20G6 IgG (antibody, V domains shown, human IgG1) VH: QVQLVQSGAEVKKPGASVKVSCKASGYTFTSYYMHWVRQAPGQGLEWMGIINPSGGSTSYAQKFQGRVTMTRDTSTSTVYMELSSLRSEDTAVYYCARGEWIRYYHFDYWGQGTLVTVSS VL: QAVVTQEPSLTVSPGGTVTLTCGSSTGAVTTSNYANWVQEKPGQAFRGLIGGTNKRAPGTPARFSGSLLGGKAALTLSGAQPEDEAEYYCALWYSNLWVFGGGTKLTVL | – | – | – | – | binding result [1]: binds
83A10-CLC anti-BCMA IgG (antibody, V domains shown, two heavy chains of 83A10 and two common light chains) VH: not shown VL: QAVVTQEPSLTVSPGGTVTLTCGSSTGAVTTSNYANWVQEKPGQAFRGLIGGTNKRAPGTPARFSGSLLGGKAALTLSGAQPEDEAEYYCALWYSNLWVFGGGTKLTVLG | – | – | – | – | Kd [3]: 24.3 nM; koff [3]: 0.00213 s⁻¹; kon [3]: 87800 M⁻¹ s⁻¹
pSCHLI333-TCB CLC (bispecific antibody, also called pSCHLI333 BCMAxCD3 TCB) heavy 1: not shown heavy 2: QVQLVQSGAEVKKPGASVKVSCKASGYMFSSFGMSWVRQAPGQGLEWMGWIYPVGQGTWYAQKFQGRVTMTRDTSTSTVYMELSSLRSEDTAVYYCARVSYPPSHFDYWGQGTLVTVSSASTKGPSVFPLAPSSKSTSGGTAALGCLVKDYFPEPVTVSWNSGALTSGVHTFPAVLQSSGLYSLSSVVTVPSSSLGTQTYICNVNHKPSNTKVDKKVEPKSCDKTHTCPPCPAPEAAGGPSVFLFPPKPKDTLMISRTPEVTCVVVDVSHEDPEVKFNWYVDGVEVHNAKTKPREEQYNSTYRVVSVLTVLHQDWLNGKEYKCKVSNKALGAPIEKTISKAKGQPREPQVCTLPPSRDELTKNQVSLSCAVKGFYPSDIAVEWESNGQPENNYKTTPPVLDSDGSFFLVSKLTVDKSRWQQGNVFSCSVMHEALHNHYTQKSLSLSPGK light: QAVVTQEPSLTVSPGGTVTLTCGSSTGAVTTSNYANWVQEKPGQAFRGLIGGTNKRAPGTPARFSGSLLGGKAALTLSGAQPEDEAEYYCALWYSNLWVFGGGTKLTVLGQPKAAPSVTLFPPSSEELQANKATLVCLISDFYPGAVTVAWKADSSPVKAGVETTTPSKQSNNKYAASSYLSLTPEQWKSHRSYSCQVTHEGSTVEKTVAPTECS | – | – | – | – | EC50 redirected T-cell killing, H929 [4]: 980 pM and 0.19 µg/ml; Kd [5]: 164 nM; Kd [6]: 7190 nM
pSCHLI373-TCB CLC (bispecific antibody) heavy 1: not shown heavy 2: EVQLVESGGGLVKPGGSLRLSCAASGFSFSNSWMNWVRQAPGKGLEWVGTIRQKTYGGTTDYAAPVKGRFTISRDDSKNTLYLQMNSLKTEDTAVYYCTTGGLFGYWDYWGQGTLVTVSSASTKGPSVFPLAPSSKSTSGGTAALGCLVKDYFPEPVTVSWNSGALTSGVHTFPAVLQSSGLYSLSSVVTVPSSSLGTQTYICNVNHKPSNTKVDKKVEPKSCDKTHTCPPCPAPEAAGGPSVFLFPPKPKDTLMISRTPEVTCVVVDVSHEDPEVKFNWYVDGVEVHNAKTKPREEQYNSTYRVVSVLTVLHQDWLNGKEYKCKVSNKALGAPIEKTISKAKGQPREPQVCTLPPSRDELTKNQVSLSCAVKGFYPSDIAVEWESNGQPENNYKTTPPVLDSDGSFFLVSKLTVDKSRWQQGNVFSCSVMHEALHNHYTQKSLSLSPGK light: QAVVTQEPSLTVSPGGTVTLTCGSSTGAVTTSNYANWVQEKPGQAFRGLIGGTNKRAPGTPARFSGSLLGGKAALTLSGAQPEDEAEYYCALWYSNLWVFGGGTKLTVLGQPKAAPSVTLFPPSSEELQANKATLVCLISDFYPGAVTVAWKADSSPVKAGVETTTPSKQSNNKYAASSYLSLTPEQWKSHRSYSCQVTHEGSTVEKTVAPTECS | – | – | – | – | EC50 redirected T-cell killing, H929 [4]: 1590 pM and 0.31 µg/ml
